Experimental data taken from US12018066 (TRIAD NATIONAL SECURITY, dated 2024).
Read-outs that look alike come from different tables or passages of the source.

B1: E08 scFv (scFv)
scFv: SYVLTQPPSVSVAPGKTARITCGGNNIGWKSVHWYQQKPGQAPVLVVYDDSDRPSGIPERFSGSNSGNTATLTISRVEAGDEADYYCQVWDSSSDLVVFGGGTKLTVLSGGSTITSYNVYYTKLSSSGTQVQLVQSGAEVKKPGSSVKVSCKASGGTFSSYAISWVRQAPGQGLEWMGGIIPIFGTANYAQKFQGRVTITADESTSTAYMELSSLRSEDTAVYYCARASGRWLQFWHYYGMDVWGQGTTVTVSS
B2: E08 minibody (scFv-Fc) (Fc fusion)
chain: B1 scFv
B3: R26 minibody (scFv-Fc) (Fc fusion)
chain: SYELTQPPSVSVAPGQTATITCGGKNIESKSVHWYQQKPGQAPVLVVSDDTDRASGIPERFSGSNSGGAATLTISRVEAGDEADYYCQVWDSPSDHYVFGPGTKLTVLSGGSTITSYNVYYTKLSSSGTQVQLVESGGGVVQPGRSLRLSCAASGFTFSSYAMHWVRQAPGKGLEWVAVISYDGSNKYYADSVKGRFTISRDKAKNTLYLQMNSLRGEDTAVYYCARELSYYDSSGYLRGDWYFDLWGRGTLVTVSS

Tests used:
[1] = target: SARS-CoV spike protein receptor binding domain (RBD1) (SARS-CoV, UniProt P59594 306-527); assay: flow cytometry (yeast scFv) / minibody ELISA, FIGS. 7A-C
[2] = target: T1, SARS-CoV-2 spike protein receptor binding domain (RBD2) (SARS-CoV-2, UniProt P0DTC2 319-537); assay: flow cytometry, yeast-displayed scFv
[3] = target: T1, SARS-CoV-2 spike protein receptor …
[4] = target: T1, SARS-CoV-2 spike protein receptor …; assay: flow cytometry, yeast-displayed scFv, titration of biotinylated antigen
[5] = target: T1, SARS-CoV-2 spike protein receptor …; assay: SPR
[6] = target: T1, SARS-CoV-2 spike protein receptor …; assay: SPR, immobilized antibody, RBD injected, 1:1 fit
[7] = target: T1, SARS-CoV-2 spike protein receptor …; assay: SPR, minibodies

Binder | binding result [1] | Kd [2] | Kd [3] | Kd [4] | Kd [5] | Kd [6] | Kd [7]
B1 | binds | 13.9 nM | 13.9 nM | 13.9 nM | – | – | –
B2 | – | – | – | – | 3.6 nM | 3.6 nM | 4 nM
B3 | – | – | – | – | – | 888 nM | 900 nM
